# Assay results published in patent publication US20140235820A1, “METHODS AND COMPOSITIONS FOR MODULATING THE Wnt PATHWAY” (Genentech, Inc., priority 2010, published 2014).
# Columns and labels:
# [1] = target: T1, Dkk1 binding to LRP6 E1E2 (Homo sapiens, UniProt O75581); assay: Peptide inhibition of Dkk1 binding to LRP6 E1E2 (biolayer interferometry); details: peptide 20-fold higher than IC50; ligand three-fold higher than dissociation constant
# T1 construct: construct E1E2-amino acids A20-E631 of LPR6; made in house; host or cells: Tni insect cells (baculovirus, secreted)
# T1 sequence (O75581 20-631): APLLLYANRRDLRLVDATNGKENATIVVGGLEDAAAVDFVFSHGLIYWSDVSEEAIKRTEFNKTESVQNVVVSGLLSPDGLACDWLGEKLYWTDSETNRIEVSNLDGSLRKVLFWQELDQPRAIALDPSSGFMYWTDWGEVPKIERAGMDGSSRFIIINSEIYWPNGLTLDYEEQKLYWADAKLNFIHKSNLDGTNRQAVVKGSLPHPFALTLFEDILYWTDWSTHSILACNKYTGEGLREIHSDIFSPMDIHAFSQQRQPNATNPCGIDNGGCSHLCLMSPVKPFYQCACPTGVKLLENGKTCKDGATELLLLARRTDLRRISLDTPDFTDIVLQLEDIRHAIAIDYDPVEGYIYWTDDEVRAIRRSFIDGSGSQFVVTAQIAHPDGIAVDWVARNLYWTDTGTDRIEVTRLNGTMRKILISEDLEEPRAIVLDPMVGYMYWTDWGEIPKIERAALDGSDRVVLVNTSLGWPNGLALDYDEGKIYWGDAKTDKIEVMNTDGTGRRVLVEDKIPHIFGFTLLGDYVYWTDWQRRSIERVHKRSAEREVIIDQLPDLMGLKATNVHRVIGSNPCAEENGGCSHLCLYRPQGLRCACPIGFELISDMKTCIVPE
# Procedure: (§1) FIG. 22. […] Binding was assessed by biolayer interferometry, as described in Example 1. Immobilized LRP6 E1E2 was exposed to protein ligand (Wnt 9b, Dkk1, or sclerostin) present in solution at a concentration three-fold higher than the measured dissociation constant for E1E2. Competing peptides were added at a saturating level (20-fold higher than the measured IC50 value). Peptide A: Ac-NSNAIKN-am; Peptide B: Ac-[…]-am (disulfide); Peptide C: Ac-[…]-am (disulfide)
# (§2) Binding kinetics were measured by biolayer interferometry using an Octet Red instrument (ForteBio) as previously described (11). Streptavidin (SA) biosensors were loaded with biotinylated hLRP6 in 50 mMTris, pH 8, 300 mM NaCl, 5% (v/v) glycerol, and 0.05% (w/v) Triton X-100. The loaded biosensors were washed in the same buffer before carrying out association and dissociation measurements for the indicated times. The Kd of each interaction was determined using steady state-analysis through the Octet Red software v6.3. Each reported value represents an average of three or more experiments at different concentrations, with a fitted experimental curve for which the square of the correlation coefficient (R^2) is above 0.96.
# (§3) To support the conclusions from protein mutagenesis, peptides were assayed for inhibitory activity toward binding of various ligands to LRP6. Three different peptides inhibited binding of the inhibitors Dkk1 and sclerostin to LRP6 E1E2 without affecting the binding of Wnt9B (FIG. 22).
# [2] = target: T2, sclerostin binding to LRP6 E1E2 (Homo sapiens, UniProt O75581); assay: Peptide inhibition of sclerostin binding to LRP6 E1E2 (biolayer interferometry); details: peptide 20-fold higher than IC50; ligand three-fold higher than dissociation constant
# T2 construct: construct E1E2-amino acids A20-E631 of LPR6; made in house; host or cells: Tni insect cells (baculovirus, secreted)
# T2 sequence (O75581 20-631): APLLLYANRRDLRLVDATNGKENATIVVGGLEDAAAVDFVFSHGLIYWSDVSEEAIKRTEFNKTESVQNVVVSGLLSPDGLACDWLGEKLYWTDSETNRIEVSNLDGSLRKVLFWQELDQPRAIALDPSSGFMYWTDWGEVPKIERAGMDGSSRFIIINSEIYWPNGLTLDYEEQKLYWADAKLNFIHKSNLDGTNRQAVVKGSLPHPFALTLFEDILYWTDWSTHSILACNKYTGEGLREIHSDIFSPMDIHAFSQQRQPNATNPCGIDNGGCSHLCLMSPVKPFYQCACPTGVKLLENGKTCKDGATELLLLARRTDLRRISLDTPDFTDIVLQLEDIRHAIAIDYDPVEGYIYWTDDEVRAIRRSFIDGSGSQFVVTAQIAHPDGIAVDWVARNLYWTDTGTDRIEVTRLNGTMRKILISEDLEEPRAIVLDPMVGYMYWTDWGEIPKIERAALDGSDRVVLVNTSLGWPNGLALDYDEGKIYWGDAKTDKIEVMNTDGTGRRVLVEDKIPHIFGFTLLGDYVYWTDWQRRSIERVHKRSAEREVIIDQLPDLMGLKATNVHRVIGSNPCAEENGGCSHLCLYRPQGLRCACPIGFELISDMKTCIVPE
# Procedure: as §1, §2, §3
substance,measurement,setting,value
Ac-NSNAIKN-am (Ac-NSNAIKN-NH2) [Peptide A],inhibition of Dkk1 binding to LRP6 E1E2,[1],inhibit binding
same,inhibition of sclerostin binding to LRP6 E1E2,[2],inhibit binding
